According to patent US5663314:

Tests used:
[1] = biological target: T1, Syntide-2
T1 sequence (peptide): PLARTLSVAGLPGKK

[2] = biological target: T2, TEY peptide
T2 sequence (peptide): PEHDHTGFLTEYVATRWYR

[3] = biological target: Casein
[4] = biological target: T3, ETE peptide
T3 sequence (peptide): RRREEETEEE

[5] = biological target: T4, S6 peptide
T4 sequence (peptide): RRLSSLRA

[6] = biological target: Ribosomal S6 protein
[7] = biological target: Histones
[8] = biological target: Kemptide
[9] = biological target: Recombinant ERK2 expressed in E. coli (Rattus norvegicus (Rat)) (UniProt P63086)
[10] = biological target: T5, RR-SRC peptide
T5 sequence (peptide): RRLIEDAEYAARG

[11] = biological target: T6, Band-3 peptide
T6 sequence (peptide): MEELQDDYEDDMEERR

[12] = biological target: bovine myelin basic protein (bovine) (UniProt P02687)
[13] = biological target: Denatured enolase

Sequence of bovine myelin basic protein (bovine) (P02687 whole entry): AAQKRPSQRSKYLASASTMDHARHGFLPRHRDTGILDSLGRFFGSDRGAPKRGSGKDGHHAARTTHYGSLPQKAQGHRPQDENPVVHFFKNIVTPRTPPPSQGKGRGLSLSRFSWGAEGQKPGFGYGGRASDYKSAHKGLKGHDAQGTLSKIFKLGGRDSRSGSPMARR

Phosphorylation [1]: < 0.005 nmol/min/mg | Phosphorylation [2]: 0.04 nmol/min/mg | Phosphorylation [3]: < 0.005 nmol/min/mg | Phosphorylation [4]: < 0.005 nmol/min/mg | Phosphorylation [5]: < 0.005 nmol/min/mg | Phosphorylation [6]: < 0.005 nmol/min/mg | Phosphorylation [7]: 0.02 nmol/min/mg | Phosphorylation [8]: < 0.005 nmol/min/mg | Phosphorylation [9]: 150 nmol/min/mg | Phosphorylation [10]: < 0.005 nmol/min/mg | Phosphorylation [11]: < 0.005 nmol/min/mg | Phosphorylation [12]: 0.1 nmol/min/mg | Phosphorylation [13]: < 0.005 nmol/min/mg
Substance: MAPK activator 1 (MAPKK1a), 46 kDa polypeptide purified from EGF-stimulated A431 cells (enzyme)
